Assay results as given in the PETadex activity labels.

B1: unnamed (protein)
chain: MAVMTPRRERSSLLSRALQVTAAAATALVTAVSLAAPAHAANPYERGPNPTDALLEASSGPFSVSEENVSRLSASGFGGGTIYYPRENNTYGAVAISPGYTGTEASIAWLGERIASHGFVVITIDTITTLDQPDSRAEQLNAALNHMINRASSTVRSRIDSSRLAVMGHSMGGGGTLRLASQRPDLKAAIPLTPWHLNKNWSSVTVPTLIIGADLDTIAPVATHAKPFYNSLPSSISKAYLELDGATHFAPNIPNKIIGKYSVAWLKRFVDNDTRYTQFLCPGPRDGLFGEVEEYRSTCPF
B2: unnamed (protein)
chain: MFGKLPFARASLAVGALLLSAAAVAQTNPYQRGPDPTVSSLEATRGPFSTSSFTVSRPSGYGAGTVYYPTNAGGKVGAIAVVPGYTARQSSINWWGPRLASHGFVVITIDTNSTLDQPSSRSSQQMAALRQVVSLAGTSSSPIYNKVDTARLGVMGWSMGGGGSLISAKNNPSLRAAAPQAPWAQESFSSVTVPTLIVSCENDSIAPNSSHSFPFYNQMTRNKKANLVINGGSHSCANSGNSDAGLIGKYGVAWMKRFMDDDTRYSKFLCGAEHQADLSKRAVEAYKENCPY
B3: unnamed (protein)
chain: MTHQIVTTQYGKIKGTTENGVHKWKGIPYAKPPVGQWRFKAPEPPEVWEDVLDATAYGPVCPQPSDLLSLSYAELPRQSEDCLYVNVFAPDTPSQNLPVMVWIHGGAFYLGAGSEPLYDGSKLAAQGEVIVVTLNYRLGPFGFLHMSSFDEAYSDNLGLLDQAAALKWVRENISAFGGDPNNVTVFGESAGGMSIAALLAMPAAKGLFQKAIMESGASRTMTKEQAASTAAAFLQVLGINESQMDRLHTVAAEDLLKAADQLRIAEKENIFQLFFQPALDPKTLPAEPEKAIAEGAASGIPLLIGTTRDEGYLFFTPDSDVHSQETLDAALEYLLGKPLAEKAADLYPRSLESQIHMMTDLLFWRPAVAYASAQSHYAPVWMYRFDWHPEKPPYNKAFHALELPFVFGNAEVTDEVKQLSHSIQTAWITFAKTGNPSTEAVNWPAYQEETRETLILDSKITIENDPESEKRQKLFPSKGEAALEHHHHHH
B4: unnamed (protein)
chain: MESQVRGGTRWKRFAVVMVPSVAATAAIGVALAQGALAASFSVSGQSFKVTAQELNGTGFSQYGAIDQGYTLSGEKTAHPVAVSVFDTARIQKMCQSVVTPNIPLLGSVSLTLTAGDSADPEKQVNAKNLYIDVEDLGADAEFTNIDIGVAGKDISQGPGMKAGEVQKKQANPYGFAQQAEKAKLTDVKQTAWATTAGTFKLPGLKMKLQTGTHECY
B5: unnamed (protein)
chain: MERTVVETRYGRLRGGTNESVFVWKGIPYAKAPVGERRFLPPEPPDAWDGVREAAAFGPVVMQPSDPIFSGLLGRMSEAPSEDGLYLNIWSPAADGKKRPVLFWIHGGAFLFGSGSSPWYDGTAFAKHGDVVVVTINYRMNVFGFLHLGDLFGEAYAQAGNLGILDQVAALRWVKENIEAFGGDPDNITIFGESAGAASVGVLLSLSEASGLFRRAILQSGSGALLLRSPKTAMAMTERILERAGIRPGDRGRLLSIPSEELLRSALSLGPGIMYGPVVDGRVLRRHPIEALCDGAASGIPILIGVTKDEYNLFTLTDPSWTKLGEKELLDRINREVGPVPEAAIRYYAETAEPSAPDWQTWLRIMTYRVFVEGMLRTADAQAAHGADVYMYRFDYETPVFGGQLKACHALELPFVFHNLHQPGVANFVGNRPEREAIANEMHYAWLSFARTGDPNGDHLPEAWPAYTSERKAAFVFSAASHVEDDPFGRERAAWMTRT
B6: unnamed (protein)
chain: MTHQIVTTQYGKIKGTTENGVHKWKGIPYAKPPVGQWRFKAPEPPEVWEDVLDATAYGPVCPQPSDLLSLSYAELPRQSEDCLYVNVFAPDTPSQNLPVMVWIHGGAFYLGAGSEPLYDGSKLAAQGEVIVVTLNYRLGPFGFLHMSSFDEAYSDNLGLLDQAAALKWVRENISAFGGDPNNVTVFGESAGGMSIAALLAMPAAKGLFQKAIMESGASRTMTKEQAASTAAAFLQVLGINESQMDRLHTVAAEDLLKAADQLRIAEKENIFQLFFQPALDPKTLPAEPEKAIAEGAASGIPLLIGTTRDEGYLFFTPDSDVHSQETLDAALEYLLGKPLAEKAADLYPRSLESQIHMMTDLLFWRPAVAYASAQSHYAPVWMYRFDWHPEKPPYNKAFHALELPFVFGNLDGLERMAKAEVTDEVKQLSHSIQTAWITFAKTGNPSTEAVNWPAYQEETRETLILDSKITIENDPESEKRQKLFPSKGEAALEHHHHHH

substrate: BHET; conditions: pH 8.5; 60 °C

How did the Km turn out when B1 was run?
Its Km is 39700 µM.

And the kcat?
The kcat was 26.8 s⁻¹.

And the kcat/Km?
Its kcat/Km is 674 M⁻¹ s⁻¹.

substrate: MHET; conditions: pH 8.5; 60 °C

With B1 as the protein, how does the Km read?
The Km was 7330 µM.

And the kcat?
Its kcat is 0.31 s⁻¹.

And the kcat/Km?
The kcat/Km was 42.3 M⁻¹ s⁻¹.

substrate: p-NP-C4; conditions: pH 8; 20 °C

With B1 as the protein, how does the Km read?
Its Km is 312 µM.

And the kcat?
The kcat was 304 s⁻¹.

And the kcat/Km?
Its kcat/Km is 973000 M⁻¹ s⁻¹.

same assay, conditions: pH 8; 60 °C

Which results are given for B1?
Km: 505 µM; kcat: 742 s⁻¹; kcat/Km: 1.47e+06 M⁻¹ s⁻¹

substrate: BHET; conditions: 48.5 °C

How did the kcat turn out when B2 was run?
The kcat was 28.5 s⁻¹.

same assay, conditions: pH 7.5; 30 °C

What does the source list for B3?
Km: 80 µM; kcat: 102 s⁻¹; kcat/Km: 1.28e+06 M⁻¹ s⁻¹

For B6, which Km is on record?
Its Km is 100 µM.

What about the kcat of the same protein?
The kcat was 37.7 s⁻¹.

What about the kcat/Km of the same protein?
The kcat/Km was 377000 M⁻¹ s⁻¹.

substrate: p-NP-C12; conditions: pH 7; 37 °C

Which results are given for B4?
Km: 4300 µM; kcat: 1.4 s⁻¹; kcat/Km: 326 M⁻¹ s⁻¹

substrate: p-NP-C14; conditions: pH 7; 37 °C

Which results are given for B4?
Km: 1100 µM; kcat: 4.5 s⁻¹; kcat/Km: 4090 M⁻¹ s⁻¹

substrate: p-NP-C16; conditions: pH 7; 37 °C

How did the Km turn out when B4 was run?
The Km was 2100 µM.

And the kcat?
Its kcat is 2.9 s⁻¹.

What about the kcat/Km of the same protein?
The kcat/Km was 1380 M⁻¹ s⁻¹.

substrate: p-NP-C12; conditions: pH 7.4; 60 °C

Which Km does the source give for B5 here?
The Km was 22800 µM.

And the kcat?
Its kcat is 0.993 s⁻¹.

And the kcat/Km?
Its kcat/Km is 43.7 M⁻¹ s⁻¹.
